The text below walks through data of US4793986A, “Macromolecular platinum antitumor compounds” (Johnson Matthey, Inc., priority 1987, dated 1988).

A short description of data set [1]: Pt release. The format is physicochemical. Set-up: unit not given here.
Data set [2] relates to SW1271. The data set can be described thus: In-vitro cytotoxicity testing, SW1271. In kind it is cell-based. As to conditions: SW1271 (human lung). The source says: (§1) IN-VITRO CY[…]^1
(§2) IC50 (ug/ml)/Active Dilution

In data set [3] the test system is L1210. The data set can be described thus: Lifespan summary, L1210. In kind it is in vivo, mice. As to conditions: i.p.; for AWG D.5: day 5.
For data set [4], the system named is L1210 Leukemia. The data set can be described thus: Effect on L1210 Leukemia. The format is in vivo, mice. The following applies: i.p.; for AWG D.5: day 5.
Data set [5] concerns B16-F10. The data set can be described thus: In-vitro cytotoxicity testing, B16-F10. The format is cell-based. The following applies: B16-F10 (murine melanoma).
From the text: as §1, §2
B16F10 -- Murine melanoma

The subject of data set [6] is HCT-116. The data set can be described thus: In-vitro cytotoxicity testing, HCT-116. The format is cell-based. The following applies: HCT-116 (human colon).
From the text: as §1, §2

In data set [7] the test system is A549. The data set can be described thus: In-vitro cytotoxicity testing, A549. The format is cell-based. The following applies: A549 (human lung).
From the text: IN-VITRO CYTOTOXICITY TESTING^1
as §2

The conditions of data set [8]: cited from earlier work.
Setting [9] is: pH 5.80, 1 h, 0.1M phosphate buffer.
Setting [10] is: pH 5.80, 24 h, 0.1M phosphate buffer.
The mark [11] stands for this setting: pH 5.80, 48 h, 0.1M phosphate buffer.
Where [12] appears, read: pH 7.00, 1 h, 0.1M phosphate buffer.
The mark [13] stands for this setting: pH 7.00, 24 h, 0.1M phosphate buffer.
Where [14] appears, read: pH 7.00, 48 h, 0.1M phosphate buffer.
Where [15] appears, read: pH 8.00, 1 h, 0.1M phosphate buffer.
Where [16] appears, read: pH 8.00, 24 h, 0.1M phosphate buffer.
The mark [17] stands for this setting: pH 8.00, 48 h, 0.1M phosphate buffer.
Setting [18] is: 160 mg/kg/dose, Q01DX1;1, H2O + tween 80.
[19] abbreviates: 240 mg/kg/dose, Q01DX1;1, H2O + tween 80.
The mark [20] stands for this setting: 320 mg/kg/dose, Q01DX1;1, H2O + tween 80.
Where [21] appears, read: 400 mg/kg/dose, Q01DX1;1, H2O + tween 80.
Where [22] appears, read: 80 mg/kg/dose, Q01DX1;1, H2O + tween 80.
[23] abbreviates: 120 mg/kg/dose, Q01DX1;1, H2O + tween 80.
Setting [24] is: 4 mg/kg/dose, Q01DX1;1, vehicle BS.
Setting [25] is: 6 mg/kg/dose, Q01DX1;1, vehicle BS.
Setting [26] is: 8 mg/kg/dose, Q01DX1;1, vehicle BS.
The mark [27] stands for this setting: 10 mg/kg/dose, Q01DX1;1, vehicle BS.

For Pt-Malonato Xylan [Example 9], the Pt release in data set [1] (setting [9]) is reported as 3.1; in data set [1] (setting [10]) it was 22.6; in data set [1] (setting [11]), 29.8; in data set [1] (pH 5.80, 72 h, 0.1M phosphate buffer) it was 32.8; in data set [1] (pH 5.80, 144 h, 0.1M phosphate buffer) it was 41.9; in data set [1] (setting [12]), 2.1. Moreover, the Pt release came out at 17.9 in data set [1] (setting [13]); 23.7 in data set [1] (setting [14]); 27.5 in data set [1] (pH 7.00, 72 h, 0.1M phosphate buffer); 40.9 in data set [1] (pH 7.00, 144 h, 0.1M phosphate buffer); 1.7 in data set [1] (setting [15]); 18.9 in data set [1] (setting [16]). Further, the Pt release in data set [1] (setting [17]) amounted to 25.4; in data set [1] (pH 8.00, 72 h, 0.1M phosphate buffer), 28.2; in data set [1] (pH 8.00, 144 h, 0.1M phosphate buffer) it was 35.8.

Pt-Isoserinato Dextran [Example 5]: the Pt release in data set [1] (setting [9]) turned out to be 9.5; in data set [1] (setting [10]), 72.5; in data set [1] (setting [11]), 88.5; in data set [1] (pH 5.80, 120 h, 0.1M phosphate buffer) it was 98.7; in data set [1] (setting [12]), 8.8; in data set [1] (setting [13]) it was 61.1. For the same compound, the Pt release in data set [1] (setting [14]) came out at 76.3; in data set [1] (pH 7.00, 120 h, 0.1M phosphate buffer), 89.3; in data set [1] (setting [15]), 8.8; in data set [1] (setting [16]) it was 55.7; in data set [1] (setting [17]) it was 66.9; in data set [1] (pH 8.00, 120 h, 0.1M phosphate buffer), 76.2.

As for “Pt-Malonato Dextran (Method B) [Example 2]”, the results for the IC50 in data set [2], in data set [5] and in data set [6] were above 500 µg/mL, 332 µg/mL and 430 µg/mL, respectively. For the same compound, the “% T/C” value in data set [3] (setting [18]) was found to be 107%; in data set [3] (setting [19]) it was 121%; in data set [3] (setting [20]), 114%; in data set [3] (setting [21]), 143%; in data set [4] (setting [22]), 100%; in data set [4] (setting [23]) it was 100%. Besides, the “% T/C” value in data set [4] (setting [18]) worked out at 107%. The “Med. S.T.” value is given as 7.5 in data set [3] (setting [18]); 8.5 in data set [3] (setting [19]); 8.0 in data set [3] (setting [20]); 10.0 in data set [3] (setting [21]); 7.0 in data set [4] (setting [22]); 7.0 in data set [4] (setting [23]). Also, the “Med. S.T.” value in data set [4] (setting [18]) was found to be 7.5.

Pt-Malonato Inulin [Example 7]: the Pt release in data set [1] (pH 5.42, 1 h) is on record as 4.7; in data set [1] (pH 5.42, 24 h) it was 18.1; in data set [1] (pH 5.42, 48 h), 20.5; in data set [1] (pH 5.42, 72 h) it was 26.2; in data set [1] (pH 5.42, 144 h), 27.5; in data set [1] (pH 6.76, 1 h) it was 3.1. For the same compound, the Pt release in data set [1] (pH 6.76, 24 h) was 15.2; in data set [1] (pH 6.76, 48 h) it was 18.3; in data set [1] (pH 6.76, 72 h), 20.0; in data set [1] (pH 6.76, 144 h), 22.7; in data set [1] (pH 7.86, 1 h), 4.9; in data set [1] (pH 7.86, 24 h) it was 17.8. Besides, the Pt release stood at 21.0 in data set [1] (pH 7.86, 48 h); 21.9 in data set [1] (pH 7.86, 72 h); 28.8 in data set [1] (pH 7.86, 144 h).

Consider “Pt-malonato dextran [Pt-malonato dextran of Example 3]”, for which the Pt release in data set [1] (pH 5.50, 1 h) was 0.6; in data set [1] (pH 5.50, 16 h) it was 5.2; in data set [1] (pH 5.50, 40 h), 6.4; in data set [1] (pH 5.50, 64 h), 7.6; in data set [1] (pH 7.10, 1 h), 0.6; in data set [1] (pH 7.10, 16 h), 4.2. Also, the Pt release is listed as 4.9 in data set [1] (pH 7.10, 40 h); 6.1 in data set [1] (pH 7.10, 64 h); 0.7 in data set [1] (pH 8.20, 1 h); 4.2 in data set [1] (pH 8.20, 16 h); 5.1 in data set [1] (pH 8.20, 40 h); 6.4 in data set [1] (pH 8.20, 64 h).

With “Pt-Malonato Dextran (Method A) [Example 1]”, the IC50 in data set [2] was 408 µg/mL; in data set [7], above 500 µg/mL; in data set [5], 426 µg/mL; in data set [6] it was above 500 µg/mL. The Pt release in data set [1] (pH 5.60, 2 h) was 0.6; in data set [1] (pH 5.60, 24 h), 4.3; in data set [1] (pH 5.60, 48 h), 6.8; in data set [1] (pH 5.60, 72 h), 8.2; in data set [1] (pH 6.80, 2 h), 0.5; in data set [1] (pH 6.80, 24 h), 6.6. For the same compound, the Pt release in data set [1] (pH 6.80, 48 h) was 10.2; in data set [1] (pH 6.80, 72 h), 13.3; in data set [1] (pH 8.30, 2 h) it was 1.3; in data set [1] (pH 8.30, 24 h), 7.2; in data set [1] (pH 8.30, 48 h), 10.3; in data set [1] (pH 8.30, 72 h), 13.8.

`N.N.[Cl][Pt][Cl]` [Cisplatin, cis-diamino dichloroplatinum(II)]: the nausea and vomiting entry in data set [8] (cisplatin as a drug) was “nausea and vomiting which cause extreme discomfort for the patient”. For the same compound, the “% T/C” value in data set [3] (setting [24]) stood at 129%; in data set [3] (setting [25]) it was 157%; in data set [3] (setting [26]), 171%; in data set [3] (setting [27]), 171%; in data set [4] (setting [24]) it was 129%; in data set [4] (setting [25]), 157%. Further, the results for the “% T/C” value in data set [4] (setting [26]) and in data set [4] (setting [27]) were 136% and 171%, respectively. Also, the “Med. S.T.” value in data set [3] (setting [24]) turned out to be 9.0; in data set [3] (setting [25]), 11.0; in data set [3] (setting [26]), 12.0; in data set [3] (setting [27]), 12.0; in data set [4] (setting [24]) it was 9.0; in data set [4] (setting [25]), 11.0. Further, the “Med. S.T.” value in data set [4] (setting [26]) is 9.5; in data set [4] (setting [27]), 12.0. In addition, the “AWG D.5” value in data set [3] (setting [24]) was -0.7 Gm; in data set [3] (setting [25]), -2.1 Gm; in data set [3] (setting [26]), -2.8 Gm; in data set [3] (setting [27]), -3.3 Gm; in data set [4] (setting [24]) it was 0.2 Gm; in data set [4] (setting [25]) it was -0.9 Gm. The “AWG D.5” value in data set [4] (setting [26]) is -1.4 Gm; in data set [4] (setting [27]) it was -2.4 Gm.

As to `N.N.O=C([O-])C1(C(=O)[O-])CCC1.[Pt+2]` [carboplatin], in data set [8] (carboplatin, relative to cisplatin), the nephrotoxicity entry is “decreased nephrotoxicity”.
